Data taken from PMC11909739.

Molecular target: KS3AT3 (homodimeric KS-AT didomain fragment of DEBS module 3)
Assay: cryo-EM structure

“ACP3 (standalone acyl carrier protein of DEBS module 3), holo form (domain or fragment)” gave a percent of KS3AT3 homodimer particles with one ACP (% of particles) of 50.3, a percent of KS3AT3 homodimer particles with two ACPs (% of particles) of 24.7 and a percent of KS3AT3 homodimer particles with zero ACPs (% of particles) of 25.
